According to publication PMC8123555, “Precision targeting of the plasminogen activator inhibitor‐1 mechanism increases efficacy of fibrinolytic therapy in empyema” (Physiological Reports, 2021):

How the values were obtained:
[1] = test system: plasminogen activating activity in pleural fluid; assay: Intrapleural inactivation of tPA and uPA plasminogen activating activity, empyema; type: in vivo, rabbit; settings: infectious pleural injury
Procedure: (§1) Amidolytic activity was measured in clear 96‐well flat bottom plates from Costar (Corning Inc.) using a Synergy™ HT Hybrid Reader (BioTek, Winooski, VT). Amidolytic activity was calculated from the initial slopes of the time traces of the change in absorbance at 405 nm upon hydrolysis of chromogenic as described previously (Komissarov et al., 2009, 2013). The plasminogen activating activity was determined from the relative rate of activation of exogenous Glu‐plasminogen added to the reaction mixture containing 0.1–0.5 µl of pleural fluid in 0.1 ml of Hepes buffer solution with BSA (1 mg/ml) as previously described (Florova et al., 2013, 2018). The reaction mixtures (0.1 ml in black 96‐well flat bottom plates from Costar) contained 100 nM of human Glu‐plasminogen with 0.2 mM of SN‐5 plasmin fluorogenic substrate (HTI, Essex Junction, VT). Plasmin activity was measured by recording changes in the fluorescence emission at 470 nm (F470) with time (excitation at 352 nm) using a Synergy™ HT Hybrid Reader (BioTek, Winooski, VT). The level of plasminogen activating activity [PA] was calculated from slopes of linear dependences of F470 from square of time (t^2) (F470 = A [PA] t^2 + B; where A and B are constants), and results of measurements of standards with known concentrations of tcuPA and tctPA as previously described (Komissarov et al., 2009, 2013). […]

[2] = test system: plasminogen activating activity in pleural fluid; assay: Intrapleural inactivation of tPA and uPA plasminogen activating activity, TCN-induced injury; type: in vivo, rabbit; settings: during PAI-1-TFT of chemically induced pleural injury; slower phase, 10-40 min
Procedure: as §1

| Substance | kobs of intrapleural inactivation ([1]; with 2.0–8.0 mg/kg DSP) | kobs of intrapleural inactivation of plasminogen activating activity [2] | kobs of intrapleural inactivation ([1]; with 2.0 mg/kg DSP) |
| --- | --- | --- | --- |
| Alteplase [sctPA, reference compound] | 0.024 ± 0.010 min⁻¹ | 0.02 to 0.05 min⁻¹ | – |
| Prourokinase [scuPA] | – | 0.02 to 0.05 min⁻¹ | 0.014 ± 0.008 min⁻¹ |
